Test: yeast display, Sf9 membrane polyspecificity reagent, FACS + sequencing; frameworks hold sequencing errors
In short: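 Galactose-induced (36–48 hours) yeast carrying a synthetic nanobody display library were exposed to 10% biotinylated, detergent-solubilized Sf9 membrane reagent at 4 °C for 1 hour. FACS followed streptavidin microbead enrichment, using low and high (top ~1%) gates for expression (anti-HA) and reagent binding (streptavidin). Colony PCR, MiSeq 2 × 250 sequencing and CDR-length filtering followed. Labels for polyreactivity reflect the gate of origin.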

Row | Sequence | polyreactivity (PSR sort gate)
1 | QVQLVESGGGLVQAGGSLRLSCAASGFTFYDYAMGLYRQAPGKERELVAGISRDGGTTYYSDSVKGRFTISRDNAKNTVYLQMNSLKPEDTAVYYCAVDFLDWYQDYYITYDYWGQGSQVTVSS | low polyreactivity
2 | QVQLVESGGGLVQAGGSLRLSCAASGFTFYDYAMVWYRQAPGKERELVAGITSTGRTYYADSVKGRFTISRDNAKNTVYLQMNSLKPEDTAVYYCNARTLPNYYRRYDYWGQGTEVTVSS | high polyreactivity
3 | QVQLVESGGGLVQAGGSLRLSCAASGFTFYGYAMGWYRQAPGKEREFVAAISSRGGRTYYADSVKGRFTISRDNAKNTVYLQMNSLKPEDTAVYYCARRRATGRFSLDYWGQGTQVTVSS | high polyreactivity
4 | QVQLVESGGGLVQAGGSLRLSCAASGFTFYGYAMGWYRQAPGKERELVAAINSGAITNYADSVKGRFTISRDNAKNTVYLQMNSLKPEDTAVYYCAASYRRLTGVGADEYWGQGTQVTVSS | high polyreactivity
5 | QVQLVESGGGLVQAGGSLRLSCAASGFTFYGYAMGWYRQAPGKERELVAAISSSGTSTYYADSVKGRFTISRDNAKNTVYLQMNSLKPEDTAVYYCAALVRGAYGYGYWGQGTQVTVSS | high polyreactivity
6 | QVQLVESGGGLVQAGGSLRLSCAASGFTFYGYAMGWYRQAPGKERELVASISWSGGTTYYADSVKGRFTISRDNAKNTVYLQMNSLKPEDTAVYYCNAVRYRYGVFPYYYWGQGTQVTVSS | high polyreactivity
7 | QVQLVESGGGLVQAGGSLRLSCAASGFTFYGYVMGWYRQAPGKERDLVAVISRSGDRTYYADSVKGRFTISRDNAKNTVYFQMNSLKPEDTAVYYCAARVYLLGWWTGNGYWGQGTQVTVSS | high polyreactivity
8 | QVQLVESGGGLVQAGGSLRLSCAASGFTFYHYAMGWYRQAPGKERELVATISKRGGSTYYADSVKGRFTISRDNAKNTVYLQMNSLKPEDTAVYYCAAKIYWSSLKMDYWGQGTQVTVSS | high polyreactivity
9 | QVQLVESGGGLVQAGGSLRLSCAASGFTFYINALGWYRLAHGKERELVAAITWRSVRTYYADSVKGRFTISRDNAKNTVYLQMNSRKPEDTEVYYCAAASAYRHGEYDYWGQGTQLTVSS | low polyreactivity
10 | QVQLVESGGGLVQAGGSLRLSCAASGFTFYIYAMGWYRQAPGKERELVAAISSGGGRTYYADSVKGRFTISRDNAKNTVYLQMNSLKPEDTAVYYCAARGRAFSYNNYGSDYWGQGTQVTVSS | high polyreactivity
11 | QVQLVESGGGLVQAGGSLRLSCAASGFTFYIYVMGWYRQARGKERELVAAITWSGGRTYYADSVKGRFTISRDYAKNTVYLQMNSLKPEDTAVYYCAASYPGLSYHKYEYWGQGTQVTVSS | high polyreactivity
12 | QVQLVESGGGLVQAGGSLRLSCAASGFTFYKNTMGWYRQAHGTERELVAAISSSGSSTYYADSVKGRFTISRDNAKNTVYLQMNSLKPEDTAVYYCAAGRFAYHDDYWGQGTQVTVSS | high polyreactivity
13 | QVQLVESGGGLVQAGGSLRLSCAASGFTFYKNTMGWYRQAPGKERELVAAISSSGSSTYYADSVKGRFTISRDKAKNTVYLQMNSLKPEDTAVYYCAAGRFAYHDDYWGQGTQVTVSS | high polyreactivity
14 | QVQLVESGGGLVQAGGSLRLSCAASGFTFYKYVMGWYRQAPGKERELVAAITTSGGSTYYADSVKGRFTISRDNAKNTVYLQMNSLKPEDTAVYYCNALARWWAYYDYGYWGQGTQVTVSS | low polyreactivity
15 | QVQLVESGGGLVQAGGSLRLSCAASGFTFYLNVMGWYRQAPGKERELVARISRSGGTTYYADSVKGRFTISRDNAKNTVYLQMNSLKPEDTAVYYCAARRYGVPPTYDYWGQGTQVTVSS | high polyreactivity
16 | QVQLVESGGGLVQAGGSLRLSCAASGFTFYLYAMGWYRQAPGKERELVAAITWSGGRTYYADSVKGRFTISRDNAKNTVYLQMNSLKPEDTAVYYCAAVVRKQLSAPSDYWGQGTQVTVSS | high polyreactivity
17 | QVQLVESGGGLVQAGGSLRLSCAASGFTFYNNAMGWYRQAPGKERELVAVITSNGGRTYYADSVKGRFTISRDNAKITVYLQMNSLKPEDTAVYYCAADYWGLGTQVTVSS | low polyreactivity
18 | QVQLVESGGGLVQAGGSLRLSCAASGFTFYNYAMGWYRQAPGKERELVAAISRSGRTYYADSVKGRFTISRDNAKNTVYLQMNSLKPEDTAVYYCAAGHGGDPGSGYWGQGTQVTVSS | high polyreactivity
19 | QVQLVESGGGLVQAGGSLRLSCAASGFTFYNYAMGWYRQAPGKERELVAAITSSGGRTYYADSVKGRFTISRDNAKNTVYLQMNSLKPEDTAVYYCAATGFYLRGEYYYCGQGTQVTVSS | low polyreactivity
20 | QVQLVESGGGLVQAGGSLRLSCAASGFTFYPYALGRYRQAPRKEREFVAAISNGDSTHYADSVKGRFTISRDNAKNTVYLQMNSLKPEDTAVYYCNAYTRYPFYFVTSKYDYWGQGTQVTVSS | low polyreactivity
21 | QVQLVESGGGLVQAGGSLRLSCAASGFTFYQYAMGWYRQAPGKEREFVAAISSSGSSTYYADSVKGRFTISRDNAKNTVYLQMNSLKPEDTEVYYCNAYFRNWRYSPGGYWGQGTQVTVSS | high polyreactivity
22 | QVQLVESGGGLVQAGGSLRLSCAASGFTFYRNAMGWYRQAPGKERELVAAINYSGGSTYFADSVKGRFTISRDNAKNTVYLQMNSLKPEVTAVYYCAVPYNYYRYHYSGYDYWGQGTQVTVSS | high polyreactivity

Row | Sequence | polyreactivity (PSR sort gate)
23 | QVQLVESGGGLVQAGGSLRLSCAASGFTFYRNAMGWYRQAPGKERELVAAISWRGSSTYYADSVKGRFTISRDNAKNTVYLQMNSLKPEDTAVYYCATEYPYWYYYRMDYWGQGTQVTVSS | high polyreactivity
24 | QVQLVESGGGLVQAGGSLRLSCAASGFTFYRNAMGWYRQAPGKERELVASISRSGGSTYYADSVKGRFTNSRDNAKNTVYLQMNSLKPEDTAVYYCAADLWWIYPHKYYYWGQGTQVTVSS | high polyreactivity
25 | QVQLVESGGGLVQAGGSLRLSCAASGFTFYRYAMGWYRQAPGKEREFVAVINIRGSTTYYADSVKGRFTISRDNAKNTVYLQMNSLKPEDTAVYYCARRYRGPYYSLPRRKEFDYWGQGTQVTVSS | high polyreactivity
26 | QVQLVESGGGLVQAGGSLRLSCAASGFTFYRYAMGWYRQAPGKERELVAAISSGGRTTYADSVKGRFTISRDNAKNTVYLQMNSLKPEDTAVYYCVFVYVYDYYYWGQGTQVTVSS | high polyreactivity
27 | QVQLVESGGGLVQAGGSLRLSCAASGFTFYRYAMGWYRQAPGKERELVAAISTSGGSTYYADSVKGRFTISRDNAKNTVYLQMNSLKPEDTAVYYCAAELLVYYWGYYYELLDYWGQGTQVSVSS | high polyreactivity
28 | QVQLVESGGGLVQAGGSLRLSCAASGFTFYRYAMGWYRQAPGKERELVATISASGGSTYYADSVKGRFTISRDNAKNTVYLQMNSLKPEDTAVYYCAVRYKSWYGFNYWGQGTQVTVSS | high polyreactivity
29 | QVQLVESGGGLVQAGGSLRLSCAASGFTFYRYAMGWYRQAPGKERELVAVISSSGGRTYYADSVKGRFTISRDNAKNTVYLQMNSLKPEDTAVYYCAAVGAVRREDYWGQGTQVTVSS | high polyreactivity
30 | QVQLVESGGGLVQAGGSLRLSCAASGFTFYRYAMGWYRQAPGKERQLVAAISRRGGSTDYADSVKGRFTISRDNAKNTVYLQMNRLKPEDTAVYYCAASYSRGVGKLGYWGQGTQVTVSS | high polyreactivity
31 | QVQLVESGGGLVQAGGSLRLSCAASGFTFYRYTMGWYRQAPGKERELVAAISSGDSTYYADSVKGRFTISRDNAKNTVYLQMNSLKPEDTAVYYCAARQYSRGAIVYYWGQGTQVTVSS | high polyreactivity
32 | QVQLVESGGGLVQAGGSLRLSCAASGFTFYRYTMGWYRQAPGKERELVAVISSGGRTNYADSVKGRFTISRDNAKNTVYLQMNSLKPEDTAVYYCATRYPGYRDGYDYWGQGTQVSVSS | high polyreactivity
33 | QVQLVESGGGLVQAGGSLRLSCAASGFTFYSNAMGWYRQAPGKERELVAAISGSGGRTYYADSVKGRFTISRDNAKNTVYLQMNSLKPEDTAVYYCAAKFTTGYYYGVPRDYWGQGTQVTVSS | high polyreactivity
34 | QVQLVESGGGLVQAGGSLRLSCAASGFTFYSNAMGWYRQAPGKERELVATIRYRGGSTYADSVKGRFTISRDNAKNTVYLQMNSLKPEDTAVYYCAARKYRSFRQRTGDYWGQGTQVTVSS | high polyreactivity
35 | QVQLVESGGGLVQAGGSLRLSCAASGFTFYSYALGWYIQAPGKERELVAAISRGGSTTYADSVKGRFTISRDNAKNTVYLQMNSLKPEDTAVYYCAARYRYRYTPYRYDYWGQGTQVTVSS | high polyreactivity
36 | QVQLVESGGGLVQAGGSLRLSCAASGFTFYSYAMGWYRQAPGKEREFVAAISGSGTITFYADSVKGRFTISRDNAKNTVYLQMNSLKPEDTAVYYCNADKYYRWSSPRYDYWGQGTQVTVSS | low polyreactivity
37 | QVQLVESGGGLVQAGGSLRLSCAASGFTFYSYAMGWYRQAPGKERELVAAISWSGTRTYYADSVKGRFTISRDNAKNTVYLQMNSLKPEDTAVFYCAARGYRYGYGYWGQGTQVTVSS | high polyreactivity
38 | QVQLVESGGGLVQAGGSLRLSCAASGFTFYSYVMGWYRQAPGKERELVAAISWSGGRTNYADSVKGRFTISRDNAKNTVYLQMNSLKPEDTAVYYCNAPFRLRYRVDYWGQVTQVTVSS | high polyreactivity
39 | QVQLVESGGGLVQAGGSLRLSCAASGFTFYTNAMGWYRQARGQERELVAAISSSGGRTYYADSVKGRFTISRDNAKNTVYLQMNSLKPEDTAVYYCNAYFTRSFSYIYWGQGTQVTVSS | high polyreactivity
40 | QVQLVESGGGLVQAGGSLRLSCAASGFTFYTYAMGWYRQAPGKERELVATISGSGGDTNYADSVKGRFTISRDNEKNTVYLQMDSLKPEDTAVYYCAAEPDATTYSDPYDYWGQGTQVTVSS | low polyreactivity
41 | QVQLVESGGGLVQAGGSLRLSCAASGFTFYTYTMGWYRQAPGKERELVAVISRSGGSTYYADSVKGLFTISRDNAKNTVYLQMNSLNPEDTAVYYCNAGYWRFIDSFDYWGQRTQVTVSS | high polyreactivity
42 | QVQLVESGGGLVQAGGSLRLSCAASGFTFYVYTMGWYRQAPGKERELVASISGGRTYYADSVKGRFTISRDNAKNTVYLQMNSLKPEDTAVYYCAAVPYPSYYDTRYDYWGPGTQVTVSS | low polyreactivity
43 | QVQLVESGGGLVQAGGSLRLSCAASGFTFYWYTMGGYRQAPGKDRELVAAISGSGGRTYYADSVKGRFTISRDNAKKTVYLQMNSLKPEDTAVYYCAARGRYAYPRYGYYPVNYWGQVTQVTVSS | high polyreactivity
